Patent US20120034163A1, “NON-INVASIVE TOOLS FOR DETECTING VULNERABLE ATHEROSCLEROTIC PLAQUES” (UNIVERSITE JOSEPH FOURIER, priority 2009, published 2012)
Where no end group is shown, it is not given here.

Experiments:
[1] = target: T1, VCAM-1 expression in the atherosclerotic lesion (Mus musculus, UniProt P29533); assay: Carotid activity ratios from gamma-well counting of excised vessels and blood; type: in vivo, ApoE−/− mice; settings: for Left-to-right carotid artery activity ratio compared with EP43: FIG. 4; for Left carotid-to-blood activity ratio compared with EP43: FIG. 5
T1 construct: The inventors observed a positive VCAM-1 staining in the atherosclerotic lesion as compared with a contralateral vessel; from tissue; host or cells: ligated left carotid artery (atherosclerotic lesion) of living ApoE-/- mice
T1 sequence (P29533 25-739): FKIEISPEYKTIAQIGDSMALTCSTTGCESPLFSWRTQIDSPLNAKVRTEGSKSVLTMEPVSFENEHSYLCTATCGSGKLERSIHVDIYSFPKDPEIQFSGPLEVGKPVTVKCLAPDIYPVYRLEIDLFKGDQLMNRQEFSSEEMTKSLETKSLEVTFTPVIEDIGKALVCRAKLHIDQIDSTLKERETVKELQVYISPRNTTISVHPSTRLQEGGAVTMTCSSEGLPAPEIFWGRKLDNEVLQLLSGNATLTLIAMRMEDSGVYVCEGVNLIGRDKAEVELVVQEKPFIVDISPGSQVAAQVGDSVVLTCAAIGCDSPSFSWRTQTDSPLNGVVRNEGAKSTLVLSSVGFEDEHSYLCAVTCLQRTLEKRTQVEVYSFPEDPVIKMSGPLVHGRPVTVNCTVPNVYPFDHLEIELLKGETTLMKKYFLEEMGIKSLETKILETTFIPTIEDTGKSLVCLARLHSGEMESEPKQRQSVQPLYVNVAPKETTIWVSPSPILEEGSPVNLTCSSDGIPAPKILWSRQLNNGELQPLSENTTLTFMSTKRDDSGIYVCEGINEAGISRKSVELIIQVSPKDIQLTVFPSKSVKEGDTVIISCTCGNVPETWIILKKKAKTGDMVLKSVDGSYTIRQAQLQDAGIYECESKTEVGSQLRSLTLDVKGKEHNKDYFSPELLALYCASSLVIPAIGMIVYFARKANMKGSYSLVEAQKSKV
Source text: The inventors also analyzed the left-to-right carotid activity ratios (FIG. 1) and left carotid-to-blood activity ratios (FIG. 2). These ratios were obtained from gamma-well counting of excised vessels and blood.

[2] = target: T1, VCAM-1 expression in the atherosclerotic lesion; assay: In vivo whole-body planar imaging; design: species or system ApoE−/− mice; settings: for Left-to-right carotid activity ratio from quantified planar images compared to EP43: FIG. 8, FIG. 9; for Non invasive imaging of tracer uptake in the carotid atherosclerotic lesion: whole-body planar images, similar dose of tracer, FIG. 6
Experimental: In vivo planar imaging was performed using a small-animal dedicated gamma-camera equipped with a parallel-hole collimator.

[3] = Organ biodistribution of 99mTc-labelled tracers by gamma-well counting of excised organs; settings: 3 hours after injection
Experimental: An experimental model of ApoE^−/− mice with left carotid artery ligation was used.
Left carotid artery ligation was performed under anesthesia and the animals were returned to their cages. Three weeks later, the animals were re-anesthetized and the radiotracers were injected in a lateral tail vein. Planar imaging was performed for 3 hours before the animals were euthanized. The major organs were excised, weighed and gamma-well counted for the determination of the tracers' biodistribution.

[4] = target: T2, VCAM-1 expression in atherosclerotic lesions (Mus musculus, UniProt P29533); assay: In vivo pinhole SPECT imaging; design: species or system ApoE−/− mice
T2 construct: The inventors observed a positive VCAM-1 staining in the atherosclerotic lesion as compared with a contralateral vessel; from tissue; host or cells: ligated left carotid artery (atherosclerotic lesion) of living ApoE-/- mice
T2 sequence (P29533 25-739): T1 sequence (P29533 25-739)
Experimental: In vivo pinhole SPECT imaging was performed using a small-animal dedicated gamma-camera equipped with a pinhole collimator for high-resolution imaging.

VCAM-1 = target: T3, VCAM-1 (Homo sapiens, UniProt P19320); settings: Ling et al. (2000); cited from earlier work
T3 sequence (P19320 25-739): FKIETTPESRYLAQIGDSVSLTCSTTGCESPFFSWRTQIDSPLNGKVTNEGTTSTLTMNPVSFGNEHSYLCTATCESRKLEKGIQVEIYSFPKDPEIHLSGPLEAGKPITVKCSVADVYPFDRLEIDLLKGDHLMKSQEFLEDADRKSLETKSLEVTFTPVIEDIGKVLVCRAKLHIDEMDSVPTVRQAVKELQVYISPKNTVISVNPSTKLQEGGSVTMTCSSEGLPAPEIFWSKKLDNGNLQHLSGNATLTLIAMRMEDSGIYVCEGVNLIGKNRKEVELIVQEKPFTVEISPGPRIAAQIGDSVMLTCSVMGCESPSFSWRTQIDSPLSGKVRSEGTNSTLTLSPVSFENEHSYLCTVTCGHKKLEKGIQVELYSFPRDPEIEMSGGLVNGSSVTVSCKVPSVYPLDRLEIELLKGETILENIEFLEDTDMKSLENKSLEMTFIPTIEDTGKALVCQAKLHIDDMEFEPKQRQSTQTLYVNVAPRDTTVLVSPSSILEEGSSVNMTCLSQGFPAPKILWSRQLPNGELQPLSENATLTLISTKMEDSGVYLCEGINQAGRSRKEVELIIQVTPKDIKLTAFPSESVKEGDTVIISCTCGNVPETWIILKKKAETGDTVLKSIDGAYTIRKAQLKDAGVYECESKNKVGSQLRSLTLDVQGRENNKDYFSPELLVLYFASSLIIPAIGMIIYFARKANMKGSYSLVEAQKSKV

[5] = high resolution pinhole SPECT, FIG. 10

## HGRANLRILAAY (also: 99mTc label) [EP52]
[1]
  Left-to-right carotid artery activity ratio compared with EP43: did not display improved
  Left carotid-to-blood activity ratio compared with EP43: did not display improved
[2]
  Left-to-right carotid activity ratio from quantified planar images compared to EP43: did not display improved

## HGRANLRILARA (also: 99mTc label) [EP51]
[1]
  Left-to-right carotid artery activity ratio compared with EP43: did not display improved
  Left carotid-to-blood activity ratio compared with EP43: did not display improved
[2]
  Left-to-right carotid activity ratio from quantified planar images compared to EP43: did not display improved

## HGRANLRILARY (not fully specified; also: 99mTc label) [EP43]
[3]
  Left carotid activity, compared among tracers: highest left carotid activity
  Tracer activity in the atherosclerotic lesion versus contralateral, control carotid: significantly higher
[1]; gamma-well counting, FIG. 1
  Left-to-right carotid activity ratio versus B2702-p: significantly higher
[1]; gamma-well counting, FIG. 2
  Left carotid-to-blood activity ratio versus B2702-p: significantly higher
[2]; FIG. 7
  Quantification of planar images, compared with other evaluated tracers: superiority
[2]
  Non invasive imaging of tracer uptake in the carotid atherosclerotic lesion: allowed the detection of VCAM-1 expression in the atherosclerotic lesion
[4]; all animals, FIG. 11
  Tracer activity in the atherosclerotic lesion versus contralateral vessel, image quantification: significantly higher mean tracer activity
[4]; conclusion
  In vivo SPECT imaging of VCAM-1 expression in atherosclerotic lesions: allowed in vivo SPECT imaging of VCAM-1 expression in atherosclerotic lesions
[4]; [5]
  Tracer activity in the right carotid area: no significant tracer activity could be detected
  Tracer uptake at the atherosclerotic lesion (left carotid): uptake at the level of the atherosclerotic lesion

## HGRENLRIALRY [B2702-p, parent tracer, reference compound]
[2]
  Non invasive imaging of tracer uptake in the carotid atherosclerotic lesion: high circulating blood activity precluded the non invasive imaging
VCAM-1
  Binding to VCAM-1: bind specifically

## YRLAIRLNER RENLRIALRY (YRLAIRLNERRENLRIALRY; B2702-rp)
VCAM-1
  Binding to VCAM-1: bind specifically
